Source: paper PMC10786891, “Massively parallel profiling of RNA-targeting CRISPR-Cas13d”

T1: EsCas13d, nuclease-dead (Eubacterium siraeum, UniProt B0MS50, R295A;H300A;R849A;H854A)
T1 sequence: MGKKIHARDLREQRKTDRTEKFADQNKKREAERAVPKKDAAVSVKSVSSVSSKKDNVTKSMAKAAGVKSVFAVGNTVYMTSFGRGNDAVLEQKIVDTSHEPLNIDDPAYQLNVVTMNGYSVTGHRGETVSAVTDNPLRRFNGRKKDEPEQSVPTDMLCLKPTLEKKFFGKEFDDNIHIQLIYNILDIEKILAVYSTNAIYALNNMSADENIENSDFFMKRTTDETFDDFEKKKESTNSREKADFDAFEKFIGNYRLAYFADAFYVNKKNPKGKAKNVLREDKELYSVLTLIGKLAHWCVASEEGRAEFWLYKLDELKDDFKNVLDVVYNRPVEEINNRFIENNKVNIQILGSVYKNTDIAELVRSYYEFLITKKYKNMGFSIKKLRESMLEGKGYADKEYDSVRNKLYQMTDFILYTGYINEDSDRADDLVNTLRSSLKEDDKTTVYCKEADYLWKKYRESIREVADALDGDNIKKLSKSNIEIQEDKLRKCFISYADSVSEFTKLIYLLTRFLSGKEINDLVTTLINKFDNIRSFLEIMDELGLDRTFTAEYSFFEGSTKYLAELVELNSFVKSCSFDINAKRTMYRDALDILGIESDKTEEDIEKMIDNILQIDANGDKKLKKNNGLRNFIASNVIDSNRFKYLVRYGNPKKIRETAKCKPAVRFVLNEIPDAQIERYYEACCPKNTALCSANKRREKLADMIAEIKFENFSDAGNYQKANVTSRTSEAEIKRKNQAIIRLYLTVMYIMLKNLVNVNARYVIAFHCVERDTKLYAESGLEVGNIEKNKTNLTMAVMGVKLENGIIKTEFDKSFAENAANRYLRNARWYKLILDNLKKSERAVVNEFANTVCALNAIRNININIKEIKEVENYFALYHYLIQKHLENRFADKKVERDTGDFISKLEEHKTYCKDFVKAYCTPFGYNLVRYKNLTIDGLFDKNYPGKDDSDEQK


Target: T1, EsCas13d, nuclease-dead
Test: crRNA (strand 1, pre-loaded); Mg2+; 40 mM Tris-HCl pH 7.5, 150 mM NaCl, 6 mM MgCl2, 1 mM DTT, 0.1% Tween-20, 0.2 mg/ml BSA; 25 C; 10 min per concentration, then washed
Conditions: tags: His6-TwinStrep-SUMO cleaved; N-terminal SNAP kept (SNAP-Surface 488); label: 3' end held by stalled T7 RNA polymerase

Binder	Kd [nM]
target 1 MT 5'PFS GCG 3'PFS AAC (mixed) RNA 1: CACCCGUGCAAAAAUGCAGGGGUCUAAAACUGAGCGGAUAACCUCUCUAUGG RNA 2: GGGAAUGGAUCCACAUCUACGAAUUCGCGCCAUAGAGAGGUUAUCCGCUCAAACAGAUCGGAAGAGCACACGU	32 ± 15
target 1 U11C,G17U (mixed) RNA 1: CACCCGUGCAAAAAUGCAGGGGUCUAAAACUGAGCGGAUAACCUCUCUAUGG RNA 2: GGGAAUGGAUCCACAUCUACGAAUUCGUACCAUAUAGAGGCUAUCCGCUCACCGAGAUCGGAAGAGCACACGU	65 ± 27
target 1 MT 5'PFS AGA 3'PFS CAA (mixed) RNA 1: CACCCGUGCAAAAAUGCAGGGGUCUAAAACUGAGCGGAUAACCUCUCUAUGG RNA 2: GGGAAUGGAUCCACAUCUACGAAUUCAGACCAUAGAGAGGUUAUCCGCUCACAAAGAUCGGAAGAGCACACGU	~37
target 1 MT 5'PFS CUG 3'PFS UUG (mixed) RNA 1: CACCCGUGCAAAAAUGCAGGGGUCUAAAACUGAGCGGAUAACCUCUCUAUGG RNA 2: GGGAAUGGAUCCACAUCUACGAAUUCCUGCCAUAGAGAGGUUAUCCGCUCAUUGAGAUCGGAAGAGCACACGU	4.45 ± 0.6
target 1 MT 5'PFS GCG 3'PFS AAG (mixed) RNA 1: CACCCGUGCAAAAAUGCAGGGGUCUAAAACUGAGCGGAUAACCUCUCUAUGG RNA 2: GGGAAUGGAUCCACAUCUACGAAUUCGCGCCAUAGAGAGGUUAUCCGCUCAAAGAGAUCGGAAGAGCACACGU	25 ± 7
target 1 MT 5'PFS GUU 3'PFS ACC (mixed) RNA 1: CACCCGUGCAAAAAUGCAGGGGUCUAAAACUGAGCGGAUAACCUCUCUAUGG RNA 2: GGGAAUGGAUCCACAUCUACGAAUUCGUUCCAUAGAGAGGUUAUCCGCUCAACCAGAUCGGAAGAGCACACGU	17.6 ± 3.3
target 1 MT 5'PFS ACU 3'PFS AAU (mixed) RNA 1: CACCCGUGCAAAAAUGCAGGGGUCUAAAACUGAGCGGAUAACCUCUCUAUGG RNA 2: GGGAAUGGAUCCACAUCUACGAAUUCACUCCAUAGAGAGGUUAUCCGCUCAAAUAGAUCGGAAGAGCACACGU	~60
target 1 insA 3' of 8,insA 3' of 3 (mixed) RNA 1: CACCCGUGCAAAAAUGCAGGGGUCUAAAACUGAGCGGAUAACCUCUCUAUGG RNA 2: GGGAAUGGAUCCACAUCUACGAAUUCGUACCAUAGAGAGGUUAUACCGCUACACCGAGAUCGGAAGAGCACACGU	10.4 ± 0.4
target 1 MT 5'PFS UAG 3'PFS UCC (mixed) RNA 1: CACCCGUGCAAAAAUGCAGGGGUCUAAAACUGAGCGGAUAACCUCUCUAUGG RNA 2: GGGAAUGGAUCCACAUCUACGAAUUCUAGCCAUAGAGAGGUUAUCCGCUCAUCCAGAUCGGAAGAGCACACGU	63.5 ± 20
target 1 MT 5'PFS GUC 3'PFS CAG (mixed) RNA 1: CACCCGUGCAAAAAUGCAGGGGUCUAAAACUGAGCGGAUAACCUCUCUAUGG RNA 2: GGGAAUGGAUCCACAUCUACGAAUUCGUCCCAUAGAGAGGUUAUCCGCUCACAGAGAUCGGAAGAGCACACGU	~31.5
target 1 MT 5'PFS GCG 3'PFS AAA (mixed) RNA 1: CACCCGUGCAAAAAUGCAGGGGUCUAAAACUGAGCGGAUAACCUCUCUAUGG RNA 2: GGGAAUGGAUCCACAUCUACGAAUUCGCGCCAUAGAGAGGUUAUCCGCUCAAAAAGAUCGGAAGAGCACACGU	~37
target 1 MT 5'PFS ACA 3'PFS AAG (mixed) RNA 1: CACCCGUGCAAAAAUGCAGGGGUCUAAAACUGAGCGGAUAACCUCUCUAUGG RNA 2: GGGAAUGGAUCCACAUCUACGAAUUCACACCAUAGAGAGGUUAUCCGCUCAAAGAGAUCGGAAGAGCACACGU	18 ± 6
target 1 MT 5'PFS ACG 3'PFS ACU (mixed) RNA 1: CACCCGUGCAAAAAUGCAGGGGUCUAAAACUGAGCGGAUAACCUCUCUAUGG RNA 2: GGGAAUGGAUCCACAUCUACGAAUUCACGCCAUAGAGAGGUUAUCCGCUCAACUAGAUCGGAAGAGCACACGU	10.4 ± 3.5
target 1 MT 5'PFS UCA 3'PFS UCC (mixed) RNA 1: CACCCGUGCAAAAAUGCAGGGGUCUAAAACUGAGCGGAUAACCUCUCUAUGG RNA 2: GGGAAUGGAUCCACAUCUACGAAUUCUCACCAUAGAGAGGUUAUCCGCUCAUCCAGAUCGGAAGAGCACACGU	12.5 ± 4.5
target 1 MT 5'PFS CCC 3'PFS UUU (mixed) RNA 1: CACCCGUGCAAAAAUGCAGGGGUCUAAAACUGAGCGGAUAACCUCUCUAUGG RNA 2: GGGAAUGGAUCCACAUCUACGAAUUCCCCCCAUAGAGAGGUUAUCCGCUCAUUUAGAUCGGAAGAGCACACGU	9.7 ± 4.5
target 1 MT 5'PFS ACU 3'PFS AAA (mixed) RNA 1: CACCCGUGCAAAAAUGCAGGGGUCUAAAACUGAGCGGAUAACCUCUCUAUGG RNA 2: GGGAAUGGAUCCACAUCUACGAAUUCACUCCAUAGAGAGGUUAUCCGCUCAAAAAGAUCGGAAGAGCACACGU	~75.5
target 1 MT 5'PFS CCC 3'PFS UUG (mixed) RNA 1: CACCCGUGCAAAAAUGCAGGGGUCUAAAACUGAGCGGAUAACCUCUCUAUGG RNA 2: GGGAAUGGAUCCACAUCUACGAAUUCCCCCCAUAGAGAGGUUAUCCGCUCAUUGAGAUCGGAAGAGCACACGU	~11.5
target 1 MT 5'PFS AGA 3'PFS CAC (mixed) RNA 1: CACCCGUGCAAAAAUGCAGGGGUCUAAAACUGAGCGGAUAACCUCUCUAUGG RNA 2: GGGAAUGGAUCCACAUCUACGAAUUCAGACCAUAGAGAGGUUAUCCGCUCACACAGAUCGGAAGAGCACACGU	~110
target 1 MT 5'PFS UUG 3'PFS AGU (mixed) RNA 1: CACCCGUGCAAAAAUGCAGGGGUCUAAAACUGAGCGGAUAACCUCUCUAUGG RNA 2: GGGAAUGGAUCCACAUCUACGAAUUCUUGCCAUAGAGAGGUUAUCCGCUCAAGUAGAUCGGAAGAGCACACGU	84 ± 33
target 1 MT 5'PFS GUA 3'PFS CCA (mixed) RNA 1: CACCCGUGCAAAAAUGCAGGGGUCUAAAACUGAGCGGAUAACCUCUCUAUGG RNA 2: GGGAAUGGAUCCACAUCUACGAAUUCGUACCAUAGAGAGGUUAUCCGCUCACCAAGAUCGGAAGAGCACACGU	19.6 ± 2.4
target 1 MT 5'PFS CCC 3'PFS UUC (mixed) RNA 1: CACCCGUGCAAAAAUGCAGGGGUCUAAAACUGAGCGGAUAACCUCUCUAUGG RNA 2: GGGAAUGGAUCCACAUCUACGAAUUCCCCCCAUAGAGAGGUUAUCCGCUCAUUCAGAUCGGAAGAGCACACGU	~15
target 1 MT 5'PFS CAA 3'PFS CAU (mixed) RNA 1: CACCCGUGCAAAAAUGCAGGGGUCUAAAACUGAGCGGAUAACCUCUCUAUGG RNA 2: GGGAAUGGAUCCACAUCUACGAAUUCCAACCAUAGAGAGGUUAUCCGCUCACAUAGAUCGGAAGAGCACACGU	32.5 ± 9.5
target 1 MT 5'PFS GUA 3'PFS CCC (mixed) RNA 1: CACCCGUGCAAAAAUGCAGGGGUCUAAAACUGAGCGGAUAACCUCUCUAUGG RNA 2: GGGAAUGGAUCCACAUCUACGAAUUCGUACCAUAGAGAGGUUAUCCGCUCACCCAGAUCGGAAGAGCACACGU	12.6 ± 2.1
target 1 insU 3' of 21,insC 3' of 3 (mixed) RNA 1: CACCCGUGCAAAAAUGCAGGGGUCUAAAACUGAGCGGAUAACCUCUCUAUGG RNA 2: GGGAAUGGAUCCACAUCUACGAAUUCGUACCUAUAGAGAGGUUAUCCGCUCCACCGAGAUCGGAAGAGCACACGU	22.7 ± 1.4
target 1 MT 5'PFS UAG 3'PFS UCA (mixed) RNA 1: CACCCGUGCAAAAAUGCAGGGGUCUAAAACUGAGCGGAUAACCUCUCUAUGG RNA 2: GGGAAUGGAUCCACAUCUACGAAUUCUAGCCAUAGAGAGGUUAUCCGCUCAUCAAGAUCGGAAGAGCACACGU	25 ± 5
target 1 MT 5'PFS ACG 3'PFS ACA (mixed) RNA 1: CACCCGUGCAAAAAUGCAGGGGUCUAAAACUGAGCGGAUAACCUCUCUAUGG RNA 2: GGGAAUGGAUCCACAUCUACGAAUUCACGCCAUAGAGAGGUUAUCCGCUCAACAAGAUCGGAAGAGCACACGU	25 ± 8
target 1 MT 5'PFS UUG 3'PFS AGA (mixed) RNA 1: CACCCGUGCAAAAAUGCAGGGGUCUAAAACUGAGCGGAUAACCUCUCUAUGG RNA 2: GGGAAUGGAUCCACAUCUACGAAUUCUUGCCAUAGAGAGGUUAUCCGCUCAAGAAGAUCGGAAGAGCACACGU	90 ± 40
target 1 MT 5'PFS UCA 3'PFS UCG (mixed) RNA 1: CACCCGUGCAAAAAUGCAGGGGUCUAAAACUGAGCGGAUAACCUCUCUAUGG RNA 2: GGGAAUGGAUCCACAUCUACGAAUUCUCACCAUAGAGAGGUUAUCCGCUCAUCGAGAUCGGAAGAGCACACGU	31.5 ± 14.5
